From patent publication US20060019241A1, “Na+ and CI-coupled transport system for endogenous opioid peptides” (priority 2004, published 2006)
Entries after “also recorded” stand apart in the source; their conditions may differ. Ends that are not written are not given here.

B1: Dynorphin B (1-9) (Tyr-Gly-Gly-Phe-Leu-Arg-Arg-Gln-Phe) (peptide)
peptide: YGGFLRRQF
B2: tyrosine melanocyte-stimulating hormone inhibitory factor 1 (Tyr-MIF-1; Tyr-Pro-Leu-Gly-NH2) (peptide)
peptide: YPLG-NH2

Target: Na+- and Cl--coupled transport system for endogenous opioid peptides (human cell lines ARPE-19, Tat-ARPE-19 and SK-N-SH) (human)
Experiment: cell-based or functional assay
Conditions: not given

In order of rising [3H]deltorphin II (50 nM) uptake in Tat-ARPE-19 cells, 30 min, NaCl, inhibitor 1 mM (pmol/mg protein/30 min):
1. B1  0.08
2. [Arg6, Gly7, Leu8]Met-enkephalin (Tyr-Gly-Gly-Phe-Met-Arg-Gly-Leu) (peptide)  0.09
3. Dynorphin A (1-7) (Tyr-Gly-Gly-Phe-Leu-Arg-Arg) (peptide)  0.1
4. [Arg6, Phe7]Met-enkephalin (Tyr-Gly-Gly-Phe-Met-Arg-Phe) (peptide)  0.11
5. Dynorphin A (1-6) (Tyr-Gly-Gly-Phe-Leu-Arg) (peptide)  0.12
6. Leu-enkephalin (Tyr-Gly-Gly-Phe-Leu) (peptide)  0.15
7. α-Neo-endorphin (1-6) (Tyr-Gly-Gly-Phe-Met-Lys) (peptide)  0.19
8. Met-enkephalin (Tyr-Gly-Gly-Phe-Met) (peptide)  0.5
9. Met-enkephalinamide (Tyr-Gly-Gly-Phe-Met-NH2) (peptide)  0.69
10. [des-Tyr1]Met-enkephalin (Gly-Gly-Phe-Met) (peptide)  0.74
11. β-Casomorphin (Tyr-Pro-Phe-Pro-Gly-Pro-Ile) (peptide)  2.03
12. Tyr-Pro (peptide)  5.72
13. Carnosine (β-Ala-His) (peptide)  6.21
14. β-Lipotropin (Tyr-Gly-Gly-Phe) (peptide)  6.26
15. B2  9.2
16. Gly-Gly-Gly (peptide)  9.68

In order of falling [3H]deltorphin II uptake (%) in Tat-ARPE-19 cells, inhibitor 1 mM:
1. Gly-Gly-Gly (peptide)  125 % of control
2. B2  119 % of control
3. β-Lipotropin (Tyr-Gly-Gly-Phe) (peptide)  81 % of control
4. Carnosine (β-Ala-His) (peptide)  80 % of control
5. Tyr-Pro (peptide)  74 % of control
6. β-Casomorphin (Tyr-Pro-Phe-Pro-Gly-Pro-Ile) (peptide)  26 % of control
7. [des-Tyr1]Met-enkephalin (Gly-Gly-Phe-Met) (peptide)  10 % of control
8. Met-enkephalinamide (Tyr-Gly-Gly-Phe-Met-NH2) (peptide)  9 % of control
9. Met-enkephalin (Tyr-Gly-Gly-Phe-Met) (peptide)  6 % of control
10. α-Neo-endorphin (1-6) (Tyr-Gly-Gly-Phe-Met-Lys) (peptide)  3 % of control
11. Dynorphin A (1-6) (Tyr-Gly-Gly-Phe-Leu-Arg) (peptide)  2 % of control
12. Leu-enkephalin (Tyr-Gly-Gly-Phe-Leu) (peptide)  2 % of control
13. Dynorphin A (1-7) (Tyr-Gly-Gly-Phe-Leu-Arg-Arg) (peptide)  1 % of control
14. [Arg6, Gly7, Leu8]Met-enkephalin (Tyr-Gly-Gly-Phe-Met-Arg-Gly-Leu) (peptide)  1 % of control
15. [Arg6, Phe7]Met-enkephalin (Tyr-Gly-Gly-Phe-Met-Arg-Phe) (peptide)  1 % of control
16. B1  1 % of control

In order of rising IC50 for inhibition of [3H]deltorphin II uptake in Tat-ARPE-19 cells:
1. [Arg6, Gly7, Leu8]Met-enkephalin (Tyr-Gly-Gly-Phe-Met-Arg-Gly-Leu) (peptide)  2.5 mM
2. B1  3.1 mM
3. Dynorphin A (1-6) (Tyr-Gly-Gly-Phe-Leu-Arg) (peptide)  4.2 mM
4. Dynorphin A (1-7) (Tyr-Gly-Gly-Phe-Leu-Arg-Arg) (peptide)  7.3 mM
5. [Arg6, Phe7]Met-enkephalin (Tyr-Gly-Gly-Phe-Met-Arg-Phe) (peptide)  9.1 mM
6. Leu-enkephalin (Tyr-Gly-Gly-Phe-Leu) (peptide)  9.5 mM
7. Met-enkephalinamide (Tyr-Gly-Gly-Phe-Met-NH2) (peptide)  13 mM
8. [des-Tyr1]Met-enkephalin (Gly-Gly-Phe-Met) (peptide)  31.9 mM
9. Met-enkephalin (Tyr-Gly-Gly-Phe-Met) (peptide)  33.2 mM

In order of rising [3H]deltorphin II (50 nM) uptake in control ARPE-19 cells, 30 min, NaCl, opioid peptide 1 mM (pmol/mg protein/30 min):
1. [Arg6, Gly7, Leu8]Met-enkephalin (Tyr-Gly-Gly-Phe-Met-Arg-Gly-Leu) (peptide)  0.04
2. Dynorphin A (1-7) (Tyr-Gly-Gly-Phe-Leu-Arg-Arg) (peptide)  0.05
3. [Arg6, Phe7]Met-enkephalin (Tyr-Gly-Gly-Phe-Met-Arg-Phe) (peptide)  0.05
4. Dynorphin A (1-6) (Tyr-Gly-Gly-Phe-Leu-Arg) (peptide)  0.06
5. Met-enkephalin (Tyr-Gly-Gly-Phe-Met) (peptide)  0.06
6. B1  0.06

In order of falling [3H]deltorphin II uptake (%) in control ARPE-19 cells, opioid peptide 1 mM:
1. Dynorphin A (1-6) (Tyr-Gly-Gly-Phe-Leu-Arg) (peptide)  5 % of control
2. Dynorphin A (1-7) (Tyr-Gly-Gly-Phe-Leu-Arg-Arg) (peptide)  5 % of control
3. Met-enkephalin (Tyr-Gly-Gly-Phe-Met) (peptide)  5 % of control
4. B1  5 % of control
5. [Arg6, Gly7, Leu8]Met-enkephalin (Tyr-Gly-Gly-Phe-Met-Arg-Gly-Leu) (peptide)  4 % of control
6. [Arg6, Phe7]Met-enkephalin (Tyr-Gly-Gly-Phe-Met-Arg-Phe) (peptide)  4 % of control

In order of rising affinity from concentration-dependent inhibition of [3H]deltorphin II (25 nM) uptake in SK-N-SH cells:
1. Dynorphin A (1-6) (Tyr-Gly-Gly-Phe-Leu-Arg) (peptide)  3.5 µM
2. Dynorphin A (1-7) (Tyr-Gly-Gly-Phe-Leu-Arg-Arg) (peptide)  4.6 µM
3. Leu-enkephalin (Tyr-Gly-Gly-Phe-Leu) (peptide)  7.8 µM
4. Met-enkephalin (Tyr-Gly-Gly-Phe-Met) (peptide)  10.7 µM

Gly-Gly-Ile (peptide) gave a stimulation of deltorphin II uptake in SK-N-SH cells of 6 to 8 fold.

Test system: deltorphin II transport system in Tat-ARPE-19 cells
Experiment: Inhibition of [^3H]deltorphin II uptake in Tat-ARPE-19 cells
Format: cell-based, human
Conditions: Tat-ARPE-19 / RPE cells; [^3H]deltorphin II 50 nM; compound 1 mM
Source text: Stable transfection of ARPE-19 cells with pcDNA-Tat cDNA. The pGEM2-Tat cDNA construct contained as the insert a 295 basepair (bp) fragment encoding the first exon of HIV-1 Tat gene joined to a 145 bp pET3A transcription terminator. The entire insert (440 bp) was removed from the construct by digestion with PstI and EcoRI and ligated into the multiple cloning region of pcDNA3.1 (−) vector at PstI/EcoRI site so that the insert is downstream of the cytomegalovirus (CMV) promoter. The resultant construct was sequenced to confirm the orientation of the insert. This construct was electroporated into ARPE-19 cells and the stably transfected cell clones were isolated in the presence of Geneticin (G418). To serve as a control, empty pcDNA3.1 vector was electroporated into ARPE-19 cells in an identical manner and the clones harboring the vector were selected by G418 resistance.
Uptake measurements in control ARPE-19 cells and Tat-ARPE-19 cells. Control ARPE-19 cells and Tat-ARPE-19 cells were maintained in 75-cm^2 culture flasks in Dulbecco's modified Eagle's medium/F12 medium (1:1, volume/volume (v/v)) in the presence of fetal bovine serum (10%) and G418 (100 μg/ml). For uptake measurements, cells were released by trypsin treatment and seeded in 24-well culture plates at an initial density of 0.1×10^6 cells/well. The culture medium was replaced with fresh medium on the second day following the initial seeding and uptake measurements were made on the third day. […] After incubation at 37° C. for a desired time, uptake was terminated by the removal of the medium and washing of the cells with ice-cold uptake buffer. The cells were then dissolved in 1% SDS in 0.2 M NaOH and used for measurement of radioactivity. The uptake buffer in most experiments was 25 mM Hepes/Tris (pH 7.5), containing 140 mM NaCl, 5.4 mM KCl, 1.8 mM CaCl2, 0.8 mM MgSO4 and 5 mM glucose.
When the influence of Na^+ on the uptake process was investigated, the concentration of NaCl in the uptake buffer was adjusted, as desired, by isoosmotically replacing NaCl with N-methyl-D-glucamine chloride. To assess the influence of Cl^− on the uptake process, the composition of the uptake medium was modified by replacing KCl and CaCl2 with equimolar concentrations of potassium gluconate and calcium gluconate and the concentration of NaCl was adjusted, as desired, by iso-osmotically replacing NaCl with sodium gluconate. Saturation kinetics were analysed by fitting the data to the Michaelis-Menten equation. The Michaelis-Menten constant, Kt, was calculated by non-linear regression analysis and then confirmed by linear regression. Na^+- and Cl^−-activation kinetics were analyzed by fitting the data to the Hill equation and the Hill coefficients for Na^+ and Cl^− (h; the number of Na^+ and Cl^− ions involved in the activation process) and the K0.5 values (the concentration of Na^+ and Cl^−-needed for half-maximal activation) were determined from the analysis. Again, these constants were first calculated by non-linear regression methods and subsequently confirmed by linear regression methods. Experiments were repeated three times in duplicate and the results are given as means±S.E.M.
Substrate specificity of the deltorphin transport system. […] These peptides consisted of 4-13 amino acids.
Relative affinities of endogenous opioid peptides for the transport system.

With `NCCC(=O)N[C@@H](Cc1cnc[nH]1)C(=O)O` [Carnosine, β-Ala-His] the “competition with deltorphin for the uptake process (in words)” value (shortened to “competition with deltorphin”) was “did not compete”.
In the case of `NCC(=O)O` [Glycine], the “competition with deltorphin” value is reported as “did not compete”.
`O=C(O)[C@@H]1CCCN1` [L-Proline] was tested, and the “competition with deltorphin” value was “did not compete”.
With `N[C@@H](Cc1ccc(O)cc1)C(=O)O` [L-Tyrosine] the “competition with deltorphin” value was “did not compete”.
For “Gly-Gly-Phe-Met [[des-Tyr^1] Met-enkephalin]”, the “competition with deltorphin” value was “marked inhibition”.
With “Tyr-Gly-Gly-Phe (YGGF; printed: Tyr-Gly-Gly-Phe) [β-Lipotropin]” the “competition with deltorphin” value was “no or little inhibition”.
With “Tyr-Gly-Gly-Phe-Met-NH2 (YGGFM; printed: Tyr-Gly-Gly-Phe-Met-) [Met-enkephalinamide]” the “competition with deltorphin” value was “marked inhibition”.
In the case of Tyr-Pro, the “competition with deltorphin” value is reported as “did not compete”.
“Tyr-Pro-Leu-Gly-NH2 (YPLG-NH2) [Tyr-MIF-1]” was tested, and the “competition with deltorphin” value was “no or little inhibition; also recorded: not recognized”.
For YGGFMK [α-Neo-endorphin (1-6)], the “competition with deltorphin” value was “marked inhibition”.

Same assay, conditions: Tat-ARPE-19 cells; [^3H]deltorphin II 50 nM, 30 minutes, NaCl; inhibitor 1 mM

In order of falling “[^3H] Deltorphin II uptake” value:
1. Tyr-Pro-Leu-Gly-NH2 (YPLG-NH2) [Tyr-MIF-1]  9.20 ± 0.15 pmol/mg protein/30 min
2. N[C@@H](Cc1ccc(O)cc1)C(=O)O [L-Tyrosine]  7.52 ± 0.15 pmol/mg protein/30 min
3. O=C(O)[C@@H]1CCCN1 [L-Proline]  7.31 ± 0.20 pmol/mg protein/30 min
4. NCC(=O)O [Glycine]  7.23 ± 0.14 pmol/mg protein/30 min
5. Tyr-Gly-Gly-Phe (YGGF; printed: Tyr-Gly-Gly-Phe) [β-Lipotropin]  6.26 ± 0.31 pmol/mg protein/30 min
6. NCCC(=O)N[C@@H](Cc1cnc[nH]1)C(=O)O [Carnosine, β-Ala-His]  6.21 ± 0.08 pmol/mg protein/30 min
7. Tyr-Pro  5.72 ± 0.09 pmol/mg protein/30 min
8. YPFPGPI [β-Casomorphin]  2.03 ± 0.05 pmol/mg protein/30 min
9. Gly-Gly-Phe-Met [[des-Tyr^1] Met-enkephalin]  0.74 ± 0.03 pmol/mg protein/30 min
10. Tyr-Gly-Gly-Phe-Met-NH2 (YGGFM; printed: Tyr-Gly-Gly-Phe-Met-) [Met-enkephalinamide]  0.69 ± 0.01 pmol/mg protein/30 min
11. YGGFMK [α-Neo-endorphin (1-6)]  0.19 ± 0.01 pmol/mg protein/30 min

Same assay, conditions: Tat-ARPE-19 cells; [^3H]deltorphin II 50 nM, 30 minutes, NaCl; inhibitor 1 mM; control = 100

In order of falling “[^3H] Deltorphin II uptake (%) of control” value:
1. Tyr-Pro-Leu-Gly-NH2 (YPLG-NH2) [Tyr-MIF-1]  119%
2. N[C@@H](Cc1ccc(O)cc1)C(=O)O [L-Tyrosine]  97%
3. O=C(O)[C@@H]1CCCN1 [L-Proline]  94%
4. NCC(=O)O [Glycine]  93%
5. Tyr-Gly-Gly-Phe (YGGF; printed: Tyr-Gly-Gly-Phe) [β-Lipotropin]  81%
6. NCCC(=O)N[C@@H](Cc1cnc[nH]1)C(=O)O [Carnosine, β-Ala-His]  80%
7. Tyr-Pro  74%
8. YPFPGPI [β-Casomorphin]  26%
9. Gly-Gly-Phe-Met [[des-Tyr^1] Met-enkephalin]  10%
10. Tyr-Gly-Gly-Phe-Met-NH2 (YGGFM; printed: Tyr-Gly-Gly-Phe-Met-) [Met-enkephalinamide]  9%
11. YGGFMK [α-Neo-endorphin (1-6)]  3%
